We go through 10 molecules from publication PMC12808100, “The non-catalytic DNA polymerase ε subunit is an NPF motif recognition protein” (Nature Communications, 2025).

The labels stand for the following.
B1: endogenous DONSON: endogenous DONSON protein in Jurkat extract (protein)
chain: MALSVPGYSPGFRKPPEVVRLRRKRARSRGAAASPPRELTEPAARRAALVAGLPLRPFPAAGGRGGGSGGGPAAARRNPFARLDNRPRVAAEPPDGPAREQPEAPVPFLDSNQENDLLWEEKFPERTTVTELPQTSHVSFSEPDIPSSKSTELPVDWSIKTRLLFTSSQPFTWADHLKAQEEAQGLVQHCRATEVTLPKSIQDPKLSSELRCTFQQSLIYWLHPALSWLPLFPRIGADRKMAGKTSPWSNDATLQHVLMSDWSVSFTSLYNLLKTKLCPYFYVCTYQFTVLFRAAGLAGSDLITALISPTTRGLREAMRNEGIEFSLPLIKESGHKKETASGTSLGYGEEQAISDEDEEESFSWLEEMGVQDKIKKPDILSIKLRKEKHEVQMDHRPESVVLVKGINTFTLLNFLINSKSLVATSGPQAGLPPTLLSPVAFRGATMQMLKARSVNVKTQALSGYRDQFSLEITGPIMPHSLHSLTMLLKSSQSGSFSAVLYPHEPTAVFNICLQMDKVLDMEVVHKELTNCGLHPNTLEQLSQIPLLGKSSLRNVVLRDYIYNWRS
B2: PNMA2 (protein, UniProt Q9UL42 2-364, looked up)
Paraneoplastic antigen Ma2: ALALLEDWCRIMSVDEQKSLMVTGIPADFEEAEIQEVLQETLKSLGRYRLLGKIFRKQENANAVLLELLEDTDVSAIPSEVQGKGGVWKVIFKTPNQDTEFLERLNLFLEKEGQTVSGMFRALGQEGVSPATVPCISPELLAHLLGQAMAHAPQPLLPMRYRKLRVFSGSAVPAPEEESFEVWLEQATEIVKEWPVTEAEKKRWLAESLRGPALDLMHIVQADNPSISVEECLEAFKQVFGSLESRRTAQVRYLKTYQEEGEKVSAYVLRLETLLRRAVEKRAIPRRIADQVRLEQVMAGATLNQMLWCRLRELKDQGPPPSFLELMKVIREEEEEEASFENESIEEPEERDGYGRWNHEGDD
B3: CAPN6 (protein, UniProt Q9Y6Q1 1-641, looked up)
Calpain-6: MGPPLKLFKNQKYQELKQECIKDSRLFCDPTFLPENDSLFYNRLLPGKVVWKRPQDICDDPHLIVGNISNHQLTQGRLGHKPMVSAFSCLAVQESHWTKTIPNHKEQEWDPQKTEKYAGIFHFRFWHFGEWTEVVIDDLLPTINGDLVFSFSTSMNEFWNALLEKAYAKLLGCYEALDGLTITDIIVDFTGTLAETVDMQKGRYTELVEEKYKLFGELYKTFTKGGLICCSIESPNQEEQEVETDWGLLKGHTYTMTDIRKIRLGERLVEVFSAEKVYMVRLRNPLGRQEWSGPWSEISEEWQQLTASDRKNLGLVMSDDGEFWMSLEDFCRNFHKLNVCRNVNNPIFGRKELESVLGCWTVDDDPLMNRSGGCYNNRDTFLQNPQYIFTVPEDGHKVIMSLQQKDLRTYRRMGRPDNYIIGFELFKVEMNRKFRLHHLYIQERAGTSTYIDTRTVFLSKYLKKGNYVLVPTMFQHGRTSEFLLRIFSEVPVQLRELTLDMPKMSCWNLARGYPKVVTQITVHSAEDLEKKYANETVNPYLVIKCGKEEVRSPVQKNTVHAIFDTQAIFYRRTTDIPIIVQVWNSRKFCDQFLGQVTLDADPSDCRDLKSLYLRKKGGPTAKVKQGHISFKVISSDDLTEL
B4: FBXO3 (protein, UniProt Q9UK99 1-471, looked up)
F-box only protein 3: MAAMETETAPLTLESLPTDPLLLILSFLDYRDLINCCYVSRRLSQLSSHDPLWRRHCKKYWLISEEEKTQKNQCWKSLFIDTYSDVGRYIDHYAAIKKAWDDLKKYLEPRCPRMVLSLKEGAREEDLDAVEAQIGCKLPDDYRCSYRIHNGQKLVVPGLLGSMALSNHYRSEDLLDVDTAAGGFQQRQGLKYCLPLTFCIHTGLSQYIAVEAAEGRNKNEVFYQCPDQMARNPAAIDMFIIGATFTDWFTSYVKNVVSGGFPIIRDQIFRYVHDPECVATTGDITVSVSTSFLPELSSVHPPHYFFTYRIRIEMSKDALPEKACQLDSRYWRITNAKGDVEEVQGPGVVGEFPIISPGRVYEYTSCTTFSTTSGYMEGYYTFHFLYFKDKIFNVAIPRFHMACPTFRVSIARLEMGPDEYEEMEEEEEEEEEEDEDDDSADMDESDEDDEEERRRRVFDVPIRRRRCSRLF
B5: DOK1 (protein, UniProt Q99704 1-481, looked up)
Docking protein 1: MDGAVMEGPLFLQSQRFGTKRWRKTWAVLYPASPHGVARLEFFDHKGSSSGGGRGSSRRLDCKVIRLAECVSVAPVTVETPPEPGATAFRLDTAQRSHLLAADAPSSAAWVQTLCRNAFPKGSWTLAPTDNPPKLSALEMLENSLYSPTWEGSQFWVTVQRTEAAERCGLHGSYVLRVEAERLTLLTVGAQSQILEPLLSWPYTLLRRYGRDKVMFSFEAGRRCPSGPGTFTFQTAQGNDIFQAVETAIHRQKAQGKAGQGHDVLRADSHEGEVAEGKLPSPPGPQELLDSPPALYAEPLDSLRIAPCPSQDSLYSDPLDSTSAQAGEGVQRKKPLYWDLYEHAQQQLLKAKLTDPKEDPIYDEPEGLAPVPPQGLYDLPREPKDAWWCQARVKEEGYELPYNPATDDYAVPPPRSTKPLLAPKPQGPAFPEPGTATGSGIKSHNSALYSQVQKSGASGSWDCGLSRVGTDKTGVKSEGST
B6: LDB1 (protein, UniProt Q86U70 2-411, looked up)
LIM domain-binding protein 1: SVGCACPGCSSKSFKLYSPKEPPNGNAFPPFHPGTMLDRDVGPTPMYPPTYLEPGIGRHTPYGNQTDYRIFELNKRLQNWTEECDNLWWDAFTTEFFEDDAMLTITFCLEDGPKRYTIGRTLIPRYFRSIFEGGATELYYVLKHPKEAFHSNFVSLDCDQGSMVTQHGKPMFTQVCVEGRLYLEFMFDDMMRIKTWHFSIRQHRELIPRSILAMHAQDPQMLDQLSKNITRCGLSNSTLNYLRLCVILEPMQELMSRHKTYSLSPRDCLKTCLFQKWQRMVAPPAEPTRQQPSKRRKRKMSGGSTMSSGGGNTNNSNSKKKSPASTFALSSQVPDVMVVGEPTLMGGEFGDEDERLITRLENTQFDAANGIDDEDSFNNSPALGANSPWNSKPPSSQESKSENPTSQASQ
B7: GLB1 (protein, UniProt P16278 29-677, looked up)
Beta-galactosidase: QRMFEIDYSRDSFLKDGQPFRYISGSIHYSRVPRFYWKDRLLKMKMAGLNAIQTYVPWNFHEPWPGQYQFSEDHDVEYFLRLAHELGLLVILRPGPYICAEWEMGGLPAWLLEKESILLRSSDPDYLAAVDKWLGVLLPKMKPLLYQNGGPVITVQVENEYGSYFACDFDYLRFLQKRFRHHLGDDVVLFTTDGAHKTFLKCGALQGLYTTVDFGTGSNITDAFLSQRKCEPKGPLINSEFYTGWLDHWGQPHSTIKTEAVASSLYDILARGASVNLYMFIGGTNFAYWNGANSPYAAQPTSYDYDAPLSEAGDLTEKYFALRNIIQKFEKVPEGPIPPSTPKFAYGKVTLEKLKTVGAALDILCPSGPIKSLYPLTFIQVKQHYGFVLYRTTLPQDCSNPAPLSSPLNGVHDRAYVAVDGIPQGVLERNNVITLNITGKAGATLDLLVENMGRVNYGAYINDFKGLVSNLTLSSNILTDWTIFPLDTEDAVRSHLGGWGHRDSGHHDEAWAHNSSNYTLPAFYMGNFSIPSGIPDLPQDTFIQFPGWTKGQVWINGFNLGRYWPARGPQLTLFVPQHILMTSAPNTITVLELEWAPCSSDDPELCAVTFVDRPVIGSSVTYDHPSKPVEKRLMPPPPQKNKDSWLDHV
B8: PITPNA (protein, UniProt Q00169 2-270, looked up)
Phosphatidylinositol transfer …: VLLKEYRVILPVSVDEYQVGQLYSVAEASKNETGGGEGVEVLVNEPYEKDGEKGQYTHKIYHLQSKVPTFVRMLAPEGALNIHEKAWNAYPYCRTVITNEYMKEDFLIKIETWHKPDLGTQENVHKLEPEAWKHVEAVYIDIADRSQVLSKDYKAEEDPAKFKSIKTGRGPLGPNWKQELVNQKDCPYMCAYKLVTVKFKWWGLQNKVENFIHKQERRLFTNFHRQLFCWLDKWVDLTMDDIRRMEEETKRQLDEMRQKDPVKGMTADD
B9: LMO4 (protein, UniProt P61968 1-165, looked up)
LIM domain transcription …: MVNPGSSSQPPPVTAGSLSWKRCAGCGGKIADRFLLYAMDSYWHSRCLKCSCCQAQLGDIGTSCYTKSGMILCRNDYIRLFGNSGACSACGQSIPASELVMRAQGNVYHLKCFTCSTCRNRLVPGDRFHYINGSLFCEHDRPTALINGHLNSLQSNPLLPDQKVC
B10: FBXO45 (protein, UniProt P0C2W1 2-286, looked up)
F-box/SPRY domain-containing …: AAPAPGAGAASGGAGCSGGGAGAGAGSGSGAAGAGGRLPSRVLELVFSYLELSELRSCALVCKHWYRCLHGDENSEVWRSLCARSLAEEALRTDILCNLPSYKAKIRAFQHAFSTNDCSRNVYIKKNGFTLHRNPIAQSTDGARTKIGFSEGRHAWEVWWEGPLGTVAVIGIATKRAPMQCQGYVALLGSDDQSWGWNLVDNNLLHNGEVNGSFPQCNNAPKYQIGERIRVILDMEDKTLAFERGYEFLGVAFRGLPKVCLYPAVSAVYGNTEVTLVYLGKPLDG

One assay addresses His6-avi-MBP-tagged POLE2. The assay can be described thus: Single-point nHU-MS with recombinant His6-avi-MBP-POLE2 bait, Jurkat extract. The format is binding, human. The following applies: from the depletion of one peptide, single quantification; read-out: dissociation constant. From the text:
So far, our study only focused on a few hand-picked NPF motifs and studied them as short synthetic peptides. However, many other proteins may be present in the proteome that could bind to POLE2 and their putative NPF motifs are embedded in their natural structures that can greatly affect their binding properties. To investigate interactions between POLE2 and intact, full length proteins proteome-wide, we used nHU-MS experiments with recombinant His6-avi-MBP-tagged POLE2 as bait and purified His6-avi-MBP as a control. Even though we are aware that this recombinant POLE2 may bind to NPF motifs with a somewhat altered affinity, we assumed that this would affect all NPF motif-mediated interactions equally, allowing an unbiased affinity ranking of all identified partners. Single point nHU measurements were performed at 26 μM POLE2 concentration and the recovered supernatant was measured by label free proteomic MS measurements (Fig. 3A, Supplementary Figs. 8A, 9, Supplementary Data 1).
Single-point nHU experiments with protein baits were carried out nearly identically with two key modifications. First, the resin saturation step was carried out by mixing 50 μl streptavidin resin with 0.5−1 ml 50 μM biotinylated protein solution and the mixture was incubated for 1.5 h at 4 °C with constant agitation. Second, instead of using estimated bait concentrations, we measured it experimentally. An extra aliquot of resin stock was prepared alongside the nHU samples that were identically processed that were used to eluate the immobilized proteins under harsh conditions, in order to experimentally quantify the Cbait by using densitometry of Coomassie stained SDS-PAGE that included a protein calibration series. For this, 50 μl bait-saturated resin aliquots were mixed with 200 μl 4x Laemmli Sample Buffer (120 mM Tris-HCl pH 7, 8% SDS, 100 mM DTT, 32% glycerol, 0.004% bromphenol blue, 1% β-mercaptoethanol), instead of cell extract. After 15 min incubation at 95 °C, these samples were analyzed by SDS-PAGE using protein calibration standard, made from recombinant MBP. Densitometry was carried out after Coomassie staining on raw Tif images by using Fiji ImageJ 1.53c and experimental bait concentration were determined by adjusting for molecular weight differences between MBP and MBP-POLE2 constructs.
Samples were digested overnight at 37 °C.
For B1, the Kd is 92 µM.

Staying with this assay, now noted: one DONSON peptide, single quantification.
Consider B1, for which the depletion result is “approximately 22%”.

The same assay, now with this note: significant apparent affinity of endogenous prey protein for POLE2 bait; single-point nHU-MS; Figure S11.
As to B2, the pKapp_sign came out at 5.251.
On to B3, for which the pKapp_sign was 5.695.
Still for that read-out and setting: the value for B4 was 4.421.
On the same count and under the same terms, the value for B5 was 4.232; that for B6 was 4.689; that for B7 was 4.2.
B8: the pKapp_sign is reported as 4.604.
On the same count and under the same terms, with B9 the figure was 4.815; with B10, 4.883.
